Target: human CD3 (huCD3ed) (human) (UniProt P07766)
Assay: Biacore SPR, antibody as ligand, hCD3ed 80 nM-0.64 nM, kinetic fit

human CD3 (huCD3ed) (human), sequence (P07766 23-126, chain 1 of 2): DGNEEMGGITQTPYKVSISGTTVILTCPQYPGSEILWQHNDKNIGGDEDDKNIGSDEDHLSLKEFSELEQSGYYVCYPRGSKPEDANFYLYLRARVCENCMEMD
human CD3 (huCD3ed) (human), sequence (P04234 22-105, chain 2 of 2, further chain): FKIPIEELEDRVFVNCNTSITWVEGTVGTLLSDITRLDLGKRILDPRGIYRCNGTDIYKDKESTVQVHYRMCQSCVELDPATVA

- Kd: 10.7 nM
- t1/2: 3.8 min
Substance: SP34 (antibody)

— patent US20240018252A1
